Consider one molecule from patent US20240076371A1, “COMPOSITIONS AND METHODS FOR TREATING OSTEOARTHRITIS, RHEUMATOID ARTHRITIS, AND JOINT AND TENDON DISORDERS” (BOARD OF REGENTS, THE UNIVERSITY OF TEXAS SYSTEM, priority 2021, published 2024).

This test has as its system post-traumatic OA model (DMM) in male C57BL/6 mice. Put plainly: DMM OA model: immunohistochemistry of Col X and MMP13 in articular cartilage. The class given is in vivo, mouse. As for the experimental part: Destabilization of the medial meniscus (DMM) surgery was performed on the right knee joint of mice (Glasson S S, et al. Osteoarthritis and cartilage. 2007; 15(9):1061-9). Briefly, a 3 mm longitudinal incision over the distal patella to proximal tibial plateau was made. The joint capsule immediately medial to the patellar tendon was incised with a #15 blade and the joint capsule opened with micro-iris scissors. Blunt dissection of the fat pad over the intercondylar area was then performed to expose the intercondylar region, providing visualization of the meniscotibial ligament of the medial meniscus. Mild hemorrhage from the fat pad upon blunt dissection was controlled by pressure from absorption spears. Sectioning of medial meniscotibial ligament with micro-surgical knife, with the blade directed proximo-laterally, gave destabilization of the medial meniscus (DMM). Sham surgery was performed with the ligament visualized but not transected. Immunohistochemistry. The ABC (avidin-biotin-peroxidase complex) Immunostaining Assay Kit (Vector Laboratories, PK-6101) was used. Briefly, bone tissue sections were antigen unmasked using sodium citrate buffer (pH 6.0) at 65° C. for 2 h for MMP13 staining and trypsin digestion buffer (pH 7.8) at 37° C. for 30 min for collagen X staining. Bone tissue sections were then treated with goat normal serum for 20 min at room temperature to block nonspecific background staining. Tissue sections were stained with anti-MMP13 polyclonal antibody (1:200 dilution, Abcam, ab39012), or labeled with anti-collagen X monoclonal antibody (1:100 dilution, Thermo Fisher, 14-9771-82) at 4° C. overnight. Then, the sections were incubated for 30 min with biotin-labeled secondary antibody and VECTASTAIN ABC Reagent for 30 min Samples were washed in PBS buffer and developed in DAB (SK4100) chromogen solution (Vector Laboratories, Burlingame, CA, USA). Tissues were then counterstained with VECTOR Hematoxylin (H-3401) for 5 min at room temperature. Slides were then dehydrated, cleared, and mounted. Sections were photographed using the Keyence microscope (BZ-X710, Keyence, Osaka, Japan). The percentage of MMP13 or Col X-positive chondrocytes were quantified using NIH Image J software.

B1: M1 antibody: antibody with variable heavy chain SEQ ID NO: 58 and variable light chain SEQ ID NO: 60; inhibits or blocks opening of Cx43 hemichannel (antibody, V domains shown)
VH: EVQLQQPGAELVKPGASVKLSCKASGYTFTSYYMYWVKQRPGQGLEWIGGINPSNGGTNFNEKFKNKATLTVDKSSSTAYMQLSSLTSEDSAVYYCTREGNPYYTMNYWGQGTSVTVSS
VL: DIVMTQSPSSLSVSAGEKVTMSCKSSQSLLNSGNQKTYLAWYQQKPGQPPKLLIYGASTRESGVPDRFTGSGSGTDFTLTISSVQAEDLAVYYCQNDHSYPFTFGSGTKLEIK
Consider B1, for which the “distribution of MMP13-positive chondrocytes in articular cartilage zones” value (DMM mice, eight weeks, saline: three zones) was “localized mainly in the middle and deep zones”. The “percentage of Col X positive cells” value (articular cartilage, eight weeks following DMM, i.p. twice, vehicle-treated 52%) is listed as 38%. The “percentage of MMP-13-positive cells in the articular cartilage” value (eight weeks after DMM, i.p. twice, saline-treated 36%) is given as 27%. Besides, the “MMP13 score, ratio of integrated optical density (IOD) to articular cartilage area” value (single i.p. injection at 30 minutes post-surgery, eight weeks after DMM, saline 0.17±0.016) is 0.10±0.009.
